Experimental data taken from US20100093618A1 (published 2010).

T1: FLAG-p100 (in vitro translated) (human, UniProt Q00653 1-900)
T1 sequence: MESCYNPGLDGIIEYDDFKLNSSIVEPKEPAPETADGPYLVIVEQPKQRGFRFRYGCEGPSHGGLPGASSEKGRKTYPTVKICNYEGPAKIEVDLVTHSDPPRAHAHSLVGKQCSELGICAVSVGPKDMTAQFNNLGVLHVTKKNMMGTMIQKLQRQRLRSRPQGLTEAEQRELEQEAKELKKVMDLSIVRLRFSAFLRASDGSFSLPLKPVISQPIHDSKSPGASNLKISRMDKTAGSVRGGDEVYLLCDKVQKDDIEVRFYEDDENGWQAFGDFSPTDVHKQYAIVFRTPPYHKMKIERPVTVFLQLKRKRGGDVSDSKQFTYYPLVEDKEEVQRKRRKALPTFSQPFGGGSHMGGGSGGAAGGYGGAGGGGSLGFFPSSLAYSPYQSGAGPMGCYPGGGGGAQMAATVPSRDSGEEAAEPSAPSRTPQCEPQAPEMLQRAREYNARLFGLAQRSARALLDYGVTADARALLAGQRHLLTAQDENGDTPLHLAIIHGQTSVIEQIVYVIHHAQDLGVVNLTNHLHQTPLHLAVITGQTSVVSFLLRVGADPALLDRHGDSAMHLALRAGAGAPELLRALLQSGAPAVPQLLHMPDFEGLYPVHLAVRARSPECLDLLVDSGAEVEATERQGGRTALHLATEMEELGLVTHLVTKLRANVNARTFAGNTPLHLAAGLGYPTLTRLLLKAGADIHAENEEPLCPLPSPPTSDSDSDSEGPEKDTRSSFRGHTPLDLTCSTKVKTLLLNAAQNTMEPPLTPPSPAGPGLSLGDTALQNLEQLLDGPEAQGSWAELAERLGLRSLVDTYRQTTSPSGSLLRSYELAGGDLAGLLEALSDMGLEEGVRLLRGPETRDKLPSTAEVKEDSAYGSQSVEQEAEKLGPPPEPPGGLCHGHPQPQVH

T2: p105 (in vitro translated) (human, UniProt P19838 1-968)
T2 sequence: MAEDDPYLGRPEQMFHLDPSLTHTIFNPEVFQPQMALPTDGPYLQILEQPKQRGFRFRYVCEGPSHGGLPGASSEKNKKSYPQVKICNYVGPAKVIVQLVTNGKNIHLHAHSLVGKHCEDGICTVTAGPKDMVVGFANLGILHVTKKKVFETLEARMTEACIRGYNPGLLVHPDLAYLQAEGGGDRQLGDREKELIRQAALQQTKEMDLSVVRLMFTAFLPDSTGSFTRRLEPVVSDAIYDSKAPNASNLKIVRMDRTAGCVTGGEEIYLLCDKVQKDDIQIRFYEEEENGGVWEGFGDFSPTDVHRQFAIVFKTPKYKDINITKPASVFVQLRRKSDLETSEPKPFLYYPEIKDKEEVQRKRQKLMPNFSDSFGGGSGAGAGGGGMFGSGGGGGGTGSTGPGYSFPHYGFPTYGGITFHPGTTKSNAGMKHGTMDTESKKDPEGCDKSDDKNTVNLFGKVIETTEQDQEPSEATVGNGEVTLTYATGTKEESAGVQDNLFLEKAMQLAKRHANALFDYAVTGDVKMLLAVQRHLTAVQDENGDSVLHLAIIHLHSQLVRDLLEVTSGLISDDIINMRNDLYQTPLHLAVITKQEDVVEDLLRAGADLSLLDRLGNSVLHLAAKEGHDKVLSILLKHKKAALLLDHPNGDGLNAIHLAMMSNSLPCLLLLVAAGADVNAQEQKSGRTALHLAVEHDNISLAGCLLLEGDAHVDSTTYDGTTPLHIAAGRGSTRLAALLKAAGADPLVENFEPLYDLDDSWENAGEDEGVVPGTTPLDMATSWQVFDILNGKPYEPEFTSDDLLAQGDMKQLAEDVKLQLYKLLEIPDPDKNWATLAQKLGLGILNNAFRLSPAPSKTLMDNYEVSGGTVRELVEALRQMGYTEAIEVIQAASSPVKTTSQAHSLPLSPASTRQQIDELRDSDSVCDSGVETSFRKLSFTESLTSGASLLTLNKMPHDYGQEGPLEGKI

T3: [35S]methionine-labeled IκB-α 1-263 (in vitro translated) (UniProt P25963 1-263, [35S]methionine label)
T3 construct: Translated in vitro from pcDNA3
T3 sequence (looked up): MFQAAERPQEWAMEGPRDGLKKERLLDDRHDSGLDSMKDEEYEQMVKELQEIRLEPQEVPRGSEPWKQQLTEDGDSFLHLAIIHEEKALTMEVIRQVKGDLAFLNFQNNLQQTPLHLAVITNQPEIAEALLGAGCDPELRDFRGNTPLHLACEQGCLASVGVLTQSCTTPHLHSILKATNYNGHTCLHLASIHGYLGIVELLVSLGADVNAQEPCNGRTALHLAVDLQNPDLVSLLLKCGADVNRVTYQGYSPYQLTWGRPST

T4: GST-IκB-α (UniProt P25963 1-317)
T4 construct: also called pGEX-2T-IκB-α product; not shown: glutathione S-transferase (GST) encoded by pGEX-2T
T4 sequence: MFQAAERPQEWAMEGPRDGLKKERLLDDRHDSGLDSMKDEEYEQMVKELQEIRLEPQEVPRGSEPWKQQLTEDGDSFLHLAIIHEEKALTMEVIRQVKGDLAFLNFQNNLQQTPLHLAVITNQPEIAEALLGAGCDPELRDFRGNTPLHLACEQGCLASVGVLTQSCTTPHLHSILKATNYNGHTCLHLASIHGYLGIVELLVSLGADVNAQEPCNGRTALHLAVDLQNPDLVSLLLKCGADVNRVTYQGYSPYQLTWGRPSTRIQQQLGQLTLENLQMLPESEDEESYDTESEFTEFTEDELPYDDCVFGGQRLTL


Columns and labels:
GST [1] = target: T5, GST (UniProt P08515 1-218 = GST); test: GST pulldown of [35S]-labeled in vitro translated protein, autoradiography
T5 construct: Negative control in the pulldowns; also called GST protein; GST alone
Experimental: (§1) The pcDNA3 plasmids expressing the IκB genes under the T7 promoter were used as templates to translate in vitro the [³⁵S]methionine-labeled IκB proteins by using the TNT Quick Coupled transcription/translation systems (Promega). Aliquots (10 μl) of translation mixture were incubated with GST-Tat or GST proteins (10 μg) in 500 μl of binding buffer supplemented with 1 μg/μl of bovine serum albumin on a rocking platform for 3 h at room temperature.

[2] = target: T1, FLAG-p100 (in vitro translated); test: GST-Tat pulldown of in vitro translated protein, anti-FLAG Western blot
Experimental: (§2) The proteins were resolved on 10% SDS-PAGE, transferred to polyvinylidene difluoride membranes, and analyzed by immunoblotting with the indicated antibodies. The pcDNA3 plasmids expressing the IκB genes under the T7 promoter were used as templates to translate in vitro the [³⁵S]methionine-labeled IκB proteins by using the TNT Quick Coupled transcription/translation systems (Promega). Aliquots (10 μl) of translation mixture were incubated with GST-Tat or GST proteins (10 μg) in 500 μl of binding buffer supplemented with 1 μg/μl of bovine serum albumin on a rocking platform for 3 h at room temperature.

[3] = target: T2, p105 (in vitro translated); test: GST-Tat pulldown of in vitro translated protein, anti-p105 Western blot
Experimental: as §2

[4] = target: T3, [35S]methionine-labeled IκB-α 1-263 (in …); test: GST-Tat pulldown of [35S]-labeled in vitro translated protein, autoradiography
Experimental: as §1

GST [5] = target: T5, GST; test: GST pulldown from extracts of transfected HeLa cells, anti-FLAG Western blot
GST-IκB-α = target: T4, GST-IκB-α; test: GST-IκB-α pulldown from extracts of transfected HeLa cells, anti-FLAG Western blot

T5 sequence (P08515 whole entry): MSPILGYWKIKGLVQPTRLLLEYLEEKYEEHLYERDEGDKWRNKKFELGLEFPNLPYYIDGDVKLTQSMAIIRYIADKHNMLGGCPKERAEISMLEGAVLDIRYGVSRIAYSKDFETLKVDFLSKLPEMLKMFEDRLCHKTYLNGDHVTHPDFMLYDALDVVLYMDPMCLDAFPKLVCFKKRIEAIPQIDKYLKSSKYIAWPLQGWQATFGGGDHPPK

Row | Binder | binding result (GST [1]) | binding result (GST [5]) | further results
1 | [35S]methionine-labeled IκB-α 120-317 (in vitro translated) (other, UniProt P25963 120-317, looked up, [35S]methionine label, Translated in vitro from pcDNA3) ITNQPEIAEALLGAGCDPELRDFRGNTPLHLACEQGCLASVGVLTQSCTTPHLHSILKATNYNGHTCLHLASIHGYLGIVELLVSLGADVNAQEPCNGRTALHLAVDLQNPDLVSLLLKCGADVNRVTYQGYSPYQLTWGRPSTRIQQQLGQLTLENLQMLPESEDEESYDTESEFTEFTEDELPYDDCVFGGQRLTL | no binding | – | –
2 | [35S]methionine-labeled IκB-α 72-287 (in vitro translated) (other, [35S]methionine label) EDGDSFLHLAIIHEEKALTMEVIRQVKGDLAFLNFQNNLQQTPLHLAVITNQPEIAEALLGAGCDPELRDFRGNTPLHLACEQGCLASVGVLTQSCTTPHLHSILKATNYNGHTCLHLASIHGYLGIVELLVSLGADVNAQEPCNGRTALHLAVDLQNPDLVSLLLKCGADVNRVTYQGYSPYQLTWGRPSTRIQQQLGQLTLENLQMLPESEDEE | no binding | – | –
3 | [35S]methionine-labeled IκB-α 72-287 L(272,274,277)A (in vitro translated) (other, UniProt P25963 72-287, looked up, [35S]methionine label, range 72-287) EDGDSFLHLAIIHEEKALTMEVIRQVKGDLAFLNFQNNLQQTPLHLAVITNQPEIAEALLGAGCDPELRDFRGNTPLHLACEQGCLASVGVLTQSCTTPHLHSILKATNYNGHTCLHLASIHGYLGIVELLVSLGADVNAQEPCNGRTALHLAVDLQNPDLVSLLLKCGADVNRVTYQGYSPYQLTWGRPSTRIQQQLGQATAENAQMLPESEDEE | no binding | – | –
4 | [35S]methionine-labeled IκB-α 243-317 (in vitro translated) (other, UniProt P25963 243-317, looked up, [35S]methionine label, Translated in vitro from pcDNA3) VNRVTYQGYSPYQLTWGRPSTRIQQQLGQLTLENLQMLPESEDEESYDTESEFTEFTEDELPYDDCVFGGQRLTL | no binding | – | –
5 | GST-Tat (other, also called GST-Tat fusion protein from pGEX-2T-Tat; not shown: glutathione S-transferase (GST) encoded by pGEX-2T) MEPVDPRLEPWKHPGSQPKTACTNCYCKKCCFHCQVCFITKALGISYGRKKRRQRRRAHQNSQTHQASLSKQPTSQPRGDPTGPKE | – | – | binding result [2]: no binding; binding result [3]: no binding; binding result [4]: no binding
6 | FLAG-Tat C(22,25,27)A (p3XFLAG-CMV-Tat C(22,25,27)A) (other, Expressed in transfected HeLa cells) MEPVDPRLEPWKHPGSQPKTAATNAYAKKCCFHCQVCFITKALGISYGRKKRRQRRRAHQNSQTHQASLSKQPTSQPRGDPTGPKE | – | no binding | –
7 | FLAG-Tat (p3XFLAG-CMV-Tat, wild type) (other, Expressed in transfected HeLa cells (or MEFs); also called wild type Tat) MEPVDPRLEPWKHPGSQPKTACTNCYCKKCCFHCQVCFITKALGISYGRKKRRQRRRAHQNSQTHQASLSKQPTSQPRGDPTGPKE | – | no binding | –
8 | FLAG-Tat R(49-57)A (p3XFLAG-CMV-Tat R(49-57)A) (other) MEPVDPRLEPWKHPGSQPKTACTNCYCKKCCFHCQVCFITKALGISYGAKKAAQAAAAHQNSQTHQASLSKQPTSQPRGDPTGPKE | – | no binding | binding result (GST-IκB-α): no binding
